FireProtDB (doi:10.1021/bi972994k)

Settings: Saccharolobus solfataricus (strain ATCC 35092 / DSM 1617 / JCM 11322 / P2), Thermal, DSC, glycine-HCl 10 mM, NaCl 100 mM, reversible: yes, whole UniProt chain shown

B1: DNA-binding protein 7d wild type, P39476 (protein)
chain: MATVKFKYKGEEKEVDISKIKKVWRVGKMISFTYDEGGGKTGRGAVSEKDAPKELLQMLEKQKK
Tm (pH 2.3): 64 °C
heat capacity change of unfolding (pH 2.3): 0.48 kcal/mol/K
unfolding enthalpy (calorimetric) (pH 2.3): 40.6 kcal/mol
Tm (pH 2.5): 65.5 °C
heat capacity change of unfolding (pH 2.5): 0.57 kcal/mol/K
unfolding enthalpy (calorimetric) (pH 2.5): 43 kcal/mol
Tm (pH 2.7): 71.1 °C
heat capacity change of unfolding (pH 2.7): 0.57 kcal/mol/K
unfolding enthalpy (calorimetric) (pH 2.7): 46.6 kcal/mol
Tm (pH 2.8): 74 °C
heat capacity change of unfolding (pH 2.8): 0.45 kcal/mol/K
unfolding enthalpy (calorimetric) (pH 2.8): 49 kcal/mol
Tm (pH 2.9): 76.3 °C
heat capacity change of unfolding (pH 2.9): 0.65 kcal/mol/K
unfolding enthalpy (calorimetric) (pH 2.9): 50.2 kcal/mol
Tm (pH 3): 78.8 °C
heat capacity change of unfolding (pH 3): 0.74 kcal/mol/K
unfolding enthalpy (calorimetric) (pH 3): 51.4 kcal/mol
Tm (pH 3.2): 84.2 °C
heat capacity change of unfolding (pH 3.2): 0.72 kcal/mol/K
unfolding enthalpy (calorimetric) (pH 3.2): 55 kcal/mol
Tm (pH 3.6): 90.3 °C
heat capacity change of unfolding (pH 3.6): 0.6 kcal/mol/K
unfolding enthalpy (calorimetric) (pH 3.6): 58.6 kcal/mol
Tm (pH 3.8): 92.4 °C
heat capacity change of unfolding (pH 3.8): 0.69 kcal/mol/K
unfolding enthalpy (calorimetric) (pH 3.8): 59.8 kcal/mol
Tm (pH 4): 95.1 °C
heat capacity change of unfolding (pH 4): 0.55 kcal/mol/K
unfolding enthalpy (calorimetric) (pH 4): 63.3 kcal/mol
